Experimental data published in PMC6250670.

Target: MucR from Brucella abortus (wild-type full-length protein) (Brucella abortus)
Test: SEC-MALS

Substance: MucR from Brucella abortus (wild-type full-length protein) (natural protein)
- stoichiometry N: 10.4
